Experimental findings from patent publication US20210253679A1 (NATIONAL RESEARCH COUNCIL OF CANADA, published 2021) are described below.

B1: M79 sdAb (VHH)
VHH: QVKLEESGGGLVQAGGSLKLSCAASGSTFSSSSVGWYRQAPGQQRELVAAITSGGSTNTADSVKGRFTMSRDNAKNTVYLQMRDLKPEDTAVYYCNVAGRNWVPISRYSPGPYWGQGTQVTVSS
notes: also called M79 VHH
B2: R11 sdAb (VHH)
VHH: QVKLEESGGGLVQAGGSLRLSCVGPGFLLRSNTMGWYRQAPGKERELVAFIRPSGLTNYNDAVQGRFTISRDNAKNTVYLQMNALKPEDTAVYYCHTRPPFQRDSWGQGTQVTVSS
notes: also called R11 VHH
B3: R28 sdAb (VHH)
VHH: QVQLVESGGGLVQAGGSLRLSCVASGRTFIAYAMGWFRQAPGKEREFVAAITNFAGGTTYYADSVKGRFTISRDNAKTTVYLQMNSLKPEDTALYYCAADRSAQTMRQVRPVLPYWGQGTQVTVSS
notes: also called R28 VHH
B4: M75 sdAb (VHH)
VHH: QVQLVESGGGFVQAGGSLRLSCAASGRTFDNYVMAWFRQAPGKEREFVASISGSGSITNYANSVKDRFTISRDSAKNAIYLQMNSLKPEDTALYYCAAGSRRTYYREPKFYPSWGQGTQVTVSS
notes: also called M75 VHH
B5: R11-H4 (VHH)
VHH: QVQLVESGGGLVQPGGSLRLSCAASGFLLRSNTMGWYRQAPGKERELVAFIRPSGLTNYNDAVQGRFTISRDNSKNTLYLQMNSLRAEDTAVYYCHTRPPFQRDSWGQGTLVTVSS
B6: R11-H3 (VHH)
VHH: B5 VHH with Q1E, A49S
B7: B39-R11 (bispecific antibody, not shown: small tags and cut ends)
chain: QVQLVESGGGLVQAGGSLRLSCAASGLTFSRYVMGWFRQAPGKEREFVAAITWGGTPNYADSVKGRFTISRDNSKNTQYLQMNSLKPEDTAVYYCAAGLGWDSRYSQSYNYWGQGTQVTVSSGGGGSGGGGSGGGGSGGGGSGGGGSQVKLEESGGGLVQAGGSLRLSCVGPGFLLRSNTMGWYRQAPGKERELVAFIRPSGLTNYNDAVQGRFTISRDNAKNTVYLQMNALKPEDTAVYYCHTRPPFQRDSWGQGTQVTVSS
B8: B39-M79 (bispecific antibody, not shown: small tags and cut ends)
chain: QVQLVESGGGLVQAGGSLRLSCAASGLTFSRYVMGWFRQAPGKEREFVAAITWGGTPNYADSVKGRFTISRDNSKNTQYLQMNSLKPEDTAVYYCAAGLGWDSRYSQSYNYWGQGTQVTVSSGGGGSGGGGSGGGGSGGGGSGGGGSQVKLEESGGGLVQAGGSLKLSCAASGSTFSSSSVGWYRQAPGQQRELVAAITSGGSTNTADSVKGRFTMSRDNAKNTVYLQMRDLKPEDTAVYYCNVAGRNWVPISRYSPGPYWGQGTQVTVSS
B9: B39-R28 (bispecific antibody, not shown: small tags and cut ends)
chain: QVQLVESGGGLVQAGGSLRLSCAASGLTFSRYVMGWFRQAPGKEREFVAAITWGGTPNYADSVKGRFTISRDNSKNTQYLQMNSLKPEDTAVYYCAAGLGWDSRYSQSYNYWGQGTQVTVSSGGGGSGGGGSGGGGSGGGGSGGGGSQVQLVESGGGLVQAGGSLRLSCVASGRTFIAYAMGWFRQAPGKEREFVAAITNFAGGTTYYADSVKGRFTISRDNAKTTVYLQMNSLKPEDTALYYCAADRSAQTMRQVRPVLPYWGQGTQVTVSS
B10: B39 (VHH, not shown: small tags and cut ends)
VHH: QVQLVESGGGLVQAGGSLRLSCAASGLTFSRYVMGWFRQAPGKEREFVAAITWGGTPNYADSVKGRFTISRDNSKNTQYLQMNSLKPEDTAVYYCAAGLGWDSRYSQSYNYWGQGTQVTVSS
notes: also called B39-HA-His6; B39 control
B11: B39-M75 (bispecific antibody, not shown: small tags and cut ends)
chain: QVQLVESGGGLVQAGGSLRLSCAASGLTFSRYVMGWFRQAPGKEREFVAAITWGGTPNYADSVKGRFTISRDNSKNTQYLQMNSLKPEDTAVYYCAAGLGWDSRYSQSYNYWGQGTQVTVSSGGGGSGGGGSGGGGSGGGGSGGGGSQVQLVESGGGFVQAGGSLRLSCAASGRTFDNYVMAWFRQAPGKEREFVASISGSGSITNYANSVKDRFTISRDSAKNAIYLQMNSLKPEDTALYYCAAGSRRTYYREPKFYPSWGQGTQVTVSS

As usually defined, the Kd is the constant that tells how readily two partners part at equilibrium. Low readings indicate higher affinity, high ones lower affinity.

Where a chain is given by its changes, count along the chain named.

The target of the first assay is T1, rhesus serum albumin (rhesus, UniProt Q28522 17-600).
T1 construct: also called RhSA
The assay can be described thus: SPR, single cycle kinetics, pH 5.5. A general note: Surface plasmon resonance follows binding to a sensor surface in real time, without labels.
As to B1, the dissociation constant Kd came out at 2 nM. This counts as single-digit nanomolar.

With B2, the equilibrium dissociation constant (Kd) was 116 nM.

In turn, B3 registered a Kd of 5.9 nM.

Another assay concerns the target T2, rat serum albumin (rat, UniProt P02770 25-608).
T2 construct: also called RSA
The assay can be described thus: SPR, single cycle kinetics, pH 5.5.
On to B1, for which the Kd was 7.1 nM.

With B2, the Kd came out at 29.9 nM. Against the preceding molecule, the Kd is about 4.2-fold higher.

Regarding B3, the Kd turned out to be 0.3 nM.

A further assay addresses T3, human serum albumin (human, UniProt P02768 25-609).
T3 construct: also called HSA
In words: SPR, single cycle kinetics, pH 5.5.
B1 had a Kd of 7.1 nM.

In turn, B2 gave a Kd of 28.9 nM. This Kd lies about 4.1-fold higher than the previous one.

The molecule B4 came in with a Kd of 735 nM.

On to B3, for which the Kd is 1.8 nM.

The target in the next assay is T1, rhesus serum albumin. In words: SPR, single cycle kinetics, pH 7.4.
As to B1, the Kd is 84.6 nM.

Molecule B2 had a Kd of 159 nM.

In turn, B3 returned a Kd of 38.2 nM. This Kd is about 4.2-fold lower than that of the molecule before.

The target in another assay is T2, rat serum albumin. In words: SPR, single cycle kinetics, pH 7.4.
On to B1, for which binding was characterised by a dissociation constant (Kd) of 12.6 nM.

Turning to B2, the Kd stood at 61.7 nM.

In turn, B3 gave a Kd of 0.4 nM. This Kd lies about 150-fold lower than the previous one.

The next assay concerns the target T3, human serum albumin. In words: SPR, single cycle kinetics, pH 7.4.
B1 yielded a Kd of 122 nM. This lies in the sub-micromolar range.

Molecule B2 gave a Kd of 93.1 nM.

In turn, B4 had a Kd of 1.2 nM.

Take B3: the Kd was found to be 12.1 nM.

For a further assay, the target named is T1, rhesus serum albumin. The assay can be described thus: SPR, single cycle kinetics, pH 7.4. The source holds these as a separate data set.
The molecule B1 came in with an equilibrium dissociation constant (Kd) of 85 nM. This counts as double-digit nanomolar.

As to B2, the Kd was 159 nM.

The molecule B4 gave a Kd of 2.9 nM.

B3: the equilibrium dissociation constant (Kd) was determined as 38 nM.

The target in a further assay is T2, rat serum albumin. The assay can be described thus: SPR, single cycle kinetics, pH 7.4. The source holds these as a separate data set.
Molecule B1 had a Kd of 13 nM.

As to B2, the Kd was 61.7 nM.

Molecule B4 yielded a Kd of 315 nM.

With B3, the Kd stood at 0.4 nM.

For a further assay, the target named is T4, mouse serum albumin (mouse, UniProt P07724 25-608).
T4 construct: also called MSA
T4 sequence (P07724 25-608 limits assumed): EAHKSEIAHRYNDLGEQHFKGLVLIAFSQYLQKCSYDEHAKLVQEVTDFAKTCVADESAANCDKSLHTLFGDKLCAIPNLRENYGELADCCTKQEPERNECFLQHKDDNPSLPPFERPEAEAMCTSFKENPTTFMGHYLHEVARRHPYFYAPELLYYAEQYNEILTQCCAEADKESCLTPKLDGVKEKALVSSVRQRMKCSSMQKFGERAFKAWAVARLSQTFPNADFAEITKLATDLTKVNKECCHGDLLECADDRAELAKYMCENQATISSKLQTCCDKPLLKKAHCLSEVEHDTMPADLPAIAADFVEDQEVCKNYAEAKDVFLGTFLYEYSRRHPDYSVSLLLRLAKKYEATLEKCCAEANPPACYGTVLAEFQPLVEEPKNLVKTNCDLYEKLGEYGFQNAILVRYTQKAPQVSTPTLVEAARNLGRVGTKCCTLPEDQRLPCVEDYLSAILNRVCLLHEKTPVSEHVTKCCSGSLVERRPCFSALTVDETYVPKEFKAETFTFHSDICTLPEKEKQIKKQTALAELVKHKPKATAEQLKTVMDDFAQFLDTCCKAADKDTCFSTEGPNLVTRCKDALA
In words: SPR, single cycle kinetics, pH 7.4.
Molecule B4 yielded a Kd of 510 nM. That is a sub-micromolar value.

With B3, binding was characterised by a dissociation constant (Kd) of 160 nM.

The target of the next assay is T3, human serum albumin. In words: SPR, single cycle kinetics, pH 7.4. This is another data set of the same source.
As to B1, the Kd was determined as 122 nM.

B2 yielded a Kd of 93 nM.

Turning to B4, the affinity, expressed as Kd, was 1.2 nM.

In turn, B3 gave a Kd of 12 nM.

The next assay addresses T1, rhesus serum albumin. In words: SPR, pH 7.4; complex binding, data not analyzable.
Turning to B5, the binding result is “binds”.

The target in another assay is T2, rat serum albumin. In words: SPR, pH 7.4; complex binding, data not analyzable.
In the case of B5, the binding result was “binds”.

Regarding B6, the binding result is given as “binds”.

For a further assay, the target named is T3, human serum albumin. In words: SPR, pH 7.4; complex binding, data not analyzable.
In the case of B5, the binding result is on record as “binds”.

For B6, the binding result is listed as “binds”.

The target of the next assay is T3, human serum albumin. In words: SPR, single-concentration injection over an HSA surface.
As for B7, the binding result is listed as “binds”.

As to B8, the binding result was “binds”.

As for B9, the binding result is “binds”.

Turning to B10, the binding result is “no binding (tested: not printed (single concentration))”.

For the molecule B11, the binding result was “binds”.

A further assay addresses T4, mouse serum albumin. In words: ITC, pH 7.4. In general terms: Isothermal titration calorimetry measures the heat released or taken up as one component is titrated into another.
B1 yielded a Kd of 406 nM.

Turning to B2, the Kd was 14 nM. This Kd lies about 29-fold lower than the previous one.

The target in a further assay is T1, rhesus serum albumin. The assay can be described thus: SPR, single cycle kinetics, pH 5.5. The source holds these as a separate data set.
Consider B1, for which the Kd was 2 nM.

In turn, B2 had a Kd of 116 nM.

The molecule B3 returned a Kd of 6 nM.

The next assay has as its target T2, rat serum albumin. The assay can be described thus: SPR, single cycle kinetics, pH 5.5. The source holds these as a separate data set.
Take B1: binding was characterised by a dissociation constant (Kd) of 7 nM.

In turn, B2 had a Kd of 30 nM.

Molecule B3 gave a Kd of 0.3 nM.

In a further assay the target is T3, human serum albumin. In words: SPR, single cycle kinetics, pH 5.5. This is another data set of the same source.
In the case of B1, the Kd came out at 7 nM.

Molecule B2 returned a Kd of 29 nM.

B4: the affinity, expressed as Kd, was 735 nM.

Molecule B3 came in with a Kd of 1.8 nM.

The target of another assay is T5, HSA domain 2 (DII) (human, UniProt P02768 213-409).
T5 construct: domain: DII
In words: SPR, 100 nM VHH over an amine-coupled DII surface.
Consider B4, for which the binding result is “no binding (tested: 100 nM)”.
